Here are results for four molecules from US20210155689A1 (SHANGHAI PHARMAEXPLORER, published 2021).

The target of experiment [1] is T1, human LAG-3 on cells (HEK293-hLAG-3 stable cell line) (human, UniProt P18627 23-525).
T1 sequence: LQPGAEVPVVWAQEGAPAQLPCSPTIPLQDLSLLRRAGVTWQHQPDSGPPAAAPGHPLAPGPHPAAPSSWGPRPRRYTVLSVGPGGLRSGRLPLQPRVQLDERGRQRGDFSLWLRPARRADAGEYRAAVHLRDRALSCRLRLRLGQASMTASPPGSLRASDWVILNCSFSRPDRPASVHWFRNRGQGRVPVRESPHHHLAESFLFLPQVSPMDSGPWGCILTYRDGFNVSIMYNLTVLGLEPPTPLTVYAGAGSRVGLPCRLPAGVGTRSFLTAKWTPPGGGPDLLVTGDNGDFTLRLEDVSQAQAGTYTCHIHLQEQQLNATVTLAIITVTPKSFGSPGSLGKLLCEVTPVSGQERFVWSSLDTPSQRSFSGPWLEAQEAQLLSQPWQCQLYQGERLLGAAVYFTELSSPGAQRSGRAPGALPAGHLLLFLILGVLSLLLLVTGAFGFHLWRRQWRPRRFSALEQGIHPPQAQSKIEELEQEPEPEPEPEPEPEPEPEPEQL
As to the kind of experiment: FACS, HEK293-hLAG-3, antibody 0 nM. In general terms: In flow cytometry, cells or beads pass a laser one at a time.

For experiment [2], the target named is T1, human LAG-3 on cells (HEK293-hLAG-3 …). The experiment is described as follows: FACS, HEK293-hLAG-3, antibody 0.32 nM. From the text:
(§1) A. The binding of antibodies to LAG-3 expressing cells was detected by Flow cytometry (FACS), wherein the method was according to that of Example 5.

Experiment [3] shares this target. The experiment is described as follows: FACS, HEK293-hLAG-3, antibody 1.6 nM.
Experiment [4] has the same target. The experiment is described as follows: FACS, HEK293-hLAG-3, antibody 0.064 nM.
Excerpt: as §1

Experiment [5] shares this target. The experiment is described as follows: FACS, HEK293-hLAG-3, antibody 0.013 nM.
Excerpt: as §1

The target is the same in experiment [6]. The experiment is described as follows: FACS, HEK293-hLAG-3, antibody 8 nM.
Excerpt: as §1

Experiment [7] has the same target. The experiment is described as follows: FACS, HEK293-hLAG-3, antibody 40 nM.
Excerpt: as §1

The target in experiment [8] is T2, human LAG-3 ECD (antigen protein of the affinity test) (human, UniProt P18627 23-450).
T2 sequence: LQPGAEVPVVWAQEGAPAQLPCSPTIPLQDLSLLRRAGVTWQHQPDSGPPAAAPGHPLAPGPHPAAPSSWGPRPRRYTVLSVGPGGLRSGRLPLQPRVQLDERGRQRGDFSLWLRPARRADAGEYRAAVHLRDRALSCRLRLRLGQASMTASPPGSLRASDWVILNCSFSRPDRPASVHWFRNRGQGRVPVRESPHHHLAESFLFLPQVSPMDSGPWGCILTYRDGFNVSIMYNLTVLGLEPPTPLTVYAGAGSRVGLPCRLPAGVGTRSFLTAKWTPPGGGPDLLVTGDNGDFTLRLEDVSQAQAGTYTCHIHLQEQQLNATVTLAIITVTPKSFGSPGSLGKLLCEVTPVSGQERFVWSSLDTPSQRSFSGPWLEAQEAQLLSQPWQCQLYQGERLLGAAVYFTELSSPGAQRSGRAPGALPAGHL
The experiment is described as follows: SPR, CM5 chip, antibody captured by anti-human Fc IgG, antigen in flow, 1:1 fit. As to the method: First, anti-human Fc IgG was immobilized on the surface of the CM5 chip to 6000-10000 RU by amino coupling method, with FC1 as the reference channel. The coupling process was as follows: a freshly prepared 1:1 mixture of 50 mM NHS and 200 mM EDC was activated for 7 minutes, then injected with 10-50 ug/ml anti-human Fc IgG diluted in 10 mM sodium acetate ph5.0 buffer. The remaining activated sites were blocked with 1M ethanolamine. Then, HBS-EP+ buffer was used to dilute the antibody to be tested to 5 ug/ml (adjustable according to the capture level) and the antibodies were captured on the chip at a flow rate of 10 ul/min to obtain a response value of about 100˜300 RU. Then the antigen protein was diluted to 100 nM (the highest concentration was tentatively 100 nM), and flew through the chip surface at a flow rate of 30 ul/min. If enough signal value was obtained, the antigen-protein was diluted by several concentration gradients, and flew through the chip surface respectively. At the end of each cycle, the chip surface was regenerated with 10 mM Glycine at pH 1.5. The kinetic rate constant needed to be subtracted from the blank control, and the data was fitted with the global fit analysis method 1:1 combination model. The dissociation equilibrium rate constant (KD) was calculated according to the following formula: KD=kd/ka.
Background: SPR reads the build-up and loss of mass on a sensor chip optically.

B1: 405B8H3-2 humanized antibody (antibody, V domains shown)
VH: QVQLVQSGAEVKKPGASVKVSCKASGYTFTDYEMHWVRQAPGQGLEWMGATDPETGNSAYNQKFKGRVTMTADKSTSTVYMELSSLRSEDTAVYYCISTGWNDWGQGTTVTVSS
VL: DIQMTQSPSSLSASVGDRVTITCKASQDINSYLSWFQQKPGKAPKSLIYRADRLLDGVPSRFSGSGSGTDFTLTISSLQPEDFATYYCLQYDEFPYTFGQGTKLEIK
Usually Kd stands for the concentration at which binding is half-saturated. What is called koff is the rate constant with which the complex falls apart. In general, kon refers to the rate constant with which the complex forms. Regarding B1, the Mean fluorescence intensity in experiment [1] was 4; in experiment [2], 82; in experiment [3], 188; in experiment [4] it was 27; in experiment [5], 11; in experiment [6] it was 245. Moreover, the Mean fluorescence intensity in experiment [7] amounted to 272. For the same molecule, the Kd in experiment [8] is 1.68 nM. For the same molecule, the koff in experiment [8] was found to be 0.000184 s⁻¹. Also, the kon in experiment [8] was 110000 M⁻¹ s⁻¹.

B2: 405B8H3-6 humanized antibody (antibody, V domains shown)
VH: QVQLVQSGAEVKKPGASVKVSCKASGYTFTDYEMHWVRQAPGQGLEWMGATDPETGNSAYNQKFKGRVTMTADKSTSTVYMELSSLRSEDTAVYYCISTGWNDWGQGTTVTVSS
VL: DIQMTQSPSSLSASVGDRVTITCKASQDINSYLSWFQQKPGKAPKSLIYRADRLLDGVPSRFSGSGSGQDYTLTISSLQPEDFATYYCLQYDEFPYTFGQGTKLEIK
As to B2, the Mean fluorescence intensity in experiment [1] was determined as 4; in experiment [2], 66; in experiment [3] it was 179; in experiment [4] it was 21; in experiment [5], 9; in experiment [6] it was 242. In addition, the Mean fluorescence intensity in experiment [7] came out at 254. In experiment [8], the Kd stood at 2.04 nM. The koff in experiment [8] turned out to be 0.000193 s⁻¹. Further, in experiment [8], the kon was determined as 94900 M⁻¹ s⁻¹.

B3: 405B8H3-1 humanized antibody (antibody, V domains shown)
VH: QVQLVQSGAEVKKPGASVKVSCKASGYTFTDYEMHWVRQAPGQGLEWMGATDPETGNSAYNQKFKGRVTMTRDTSTSTVYMELSSLRSEDTAVYYCISTGWNDWGQGTTVTVSS
VL: DIQMTQSPSSLSASVGDRVTITCKASQDINSYLSWFQQKPGKAPKSLIYRADRLLDGVPSRFSGSGSGTDFTLTISSLQPEDFATYYCLQYDEFPYTFGQGTKLEIK
As for B3, the Mean fluorescence intensity was determined as 4 in experiment [1]; 73 in experiment [2]; 178 in experiment [3]; 26 in experiment [4]; 11 in experiment [5]; 244 in experiment [6]. Besides, in experiment [7], the Mean fluorescence intensity worked out at 257. The Kd in experiment [8] worked out at 2.54 nM. In addition, the koff in experiment [8] was found to be 0.000254 s⁻¹. Further, the kon in experiment [8] worked out at 100000 M⁻¹ s⁻¹.

B4: 405B8H3-7 humanized antibody (antibody, V domains shown)
VH: QVQLVQSGAEVKKPGASVKVSCKASGYTFTDYEMHWVRQAPGQGLEWIGATDPETGNSAYNQKFKGRATMTADKSTSTAYMELSSLRSEDTAVYYCISTGWNDWGQGTTVTVSS
VL: DIQMTQSPSSLSASVGDRVTITCKASQDINSYLSWFQQKPGKAPKSLIYRADRLLDGVPSRFSGSGSGQDYTLTISSLQPEDFATYYCLQYDEFPYTFGQGTKLEIK
With B4, the Mean fluorescence intensity in experiment [1] was 4; in experiment [2] it was 62; in experiment [3] it was 163; in experiment [4], 21; in experiment [5], 9; in experiment [6] it was 230. The molecule also displayed a Mean fluorescence intensity in experiment [7] of 252. Also, the Kd in experiment [8] was found to be 3.28 nM. Moreover, the koff in experiment [8] was determined as 0.000316 s⁻¹. Moreover, the association rate constant (kon) in experiment [8] worked out at 96400 M⁻¹ s⁻¹.
